Test [1] has as its target NAIP (human) (UniProt Q13075). In words: SPR; BIAcore 3000; NAIP amine-coupled to a CM5 chip; gp41 proteins (500ng, 1μg, 5μg, 10μg) injected at flow rate 10 ml/min for 240 s; flagellin as positive control; BIA EVALUATION 3.0.
For test [2], the target named is NAIP (human) (UniProt Q13075). Description: FRET or BRET; FRET between fluorophore-labelled antibodies (Alexa488 donor, Alexa546 acceptor) in monocyte-derived macrophages infected with HIV-1; dequenching of the donor after photobleaching of the acceptor.
Another test deals with T1, NAIP (human, UniProt Q13075-1 1-1403).
T1 construct: NAIP, human, endogenous protein; for SPR pulled out of a human cell lysate with an antibody column; also called human NAIP; endogenous NAIP; source: purified from human cell lysate (NHS column with NAIP antibody LS-B455, dialysis, gel filtration); endogenous, human monocyte-derived macrophages (in cells and in lysate)
T1 sequence (looked up): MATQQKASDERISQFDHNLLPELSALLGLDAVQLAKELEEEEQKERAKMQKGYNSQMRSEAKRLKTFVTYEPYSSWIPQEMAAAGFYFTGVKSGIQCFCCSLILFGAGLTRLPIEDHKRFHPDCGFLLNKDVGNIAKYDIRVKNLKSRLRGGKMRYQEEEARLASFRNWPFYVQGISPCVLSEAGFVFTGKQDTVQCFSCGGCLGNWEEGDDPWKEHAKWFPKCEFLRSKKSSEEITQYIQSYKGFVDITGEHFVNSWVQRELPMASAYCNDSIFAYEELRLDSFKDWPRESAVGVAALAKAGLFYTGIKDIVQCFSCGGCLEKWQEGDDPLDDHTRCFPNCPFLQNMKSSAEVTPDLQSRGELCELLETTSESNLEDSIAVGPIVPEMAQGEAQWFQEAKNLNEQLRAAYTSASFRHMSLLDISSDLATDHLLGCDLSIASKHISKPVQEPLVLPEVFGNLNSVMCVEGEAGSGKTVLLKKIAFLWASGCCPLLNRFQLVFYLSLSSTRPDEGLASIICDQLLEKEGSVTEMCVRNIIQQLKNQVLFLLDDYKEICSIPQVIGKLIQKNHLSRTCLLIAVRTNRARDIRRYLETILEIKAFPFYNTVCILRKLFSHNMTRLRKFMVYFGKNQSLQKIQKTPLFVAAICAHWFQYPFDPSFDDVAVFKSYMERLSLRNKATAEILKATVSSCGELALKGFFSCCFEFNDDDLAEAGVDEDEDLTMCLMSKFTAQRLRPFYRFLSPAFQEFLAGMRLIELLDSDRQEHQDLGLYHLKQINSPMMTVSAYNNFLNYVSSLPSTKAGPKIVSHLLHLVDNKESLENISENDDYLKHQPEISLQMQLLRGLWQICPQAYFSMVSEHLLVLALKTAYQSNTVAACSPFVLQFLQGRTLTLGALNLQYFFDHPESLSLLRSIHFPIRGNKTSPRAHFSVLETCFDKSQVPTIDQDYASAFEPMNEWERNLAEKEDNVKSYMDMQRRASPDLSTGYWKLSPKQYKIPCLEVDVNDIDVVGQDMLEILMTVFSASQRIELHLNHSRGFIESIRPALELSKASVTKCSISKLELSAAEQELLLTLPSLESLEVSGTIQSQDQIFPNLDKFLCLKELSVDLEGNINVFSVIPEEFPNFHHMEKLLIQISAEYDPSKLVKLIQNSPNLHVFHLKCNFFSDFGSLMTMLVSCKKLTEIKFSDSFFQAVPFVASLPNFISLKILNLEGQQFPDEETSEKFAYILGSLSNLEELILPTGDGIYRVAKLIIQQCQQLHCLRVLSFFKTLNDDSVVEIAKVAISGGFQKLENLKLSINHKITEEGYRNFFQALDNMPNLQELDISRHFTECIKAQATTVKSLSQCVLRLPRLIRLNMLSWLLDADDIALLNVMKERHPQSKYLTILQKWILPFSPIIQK
In words: SPR; BIAcore 3000; NAIP amine-coupled to a CM5 chip; gp41 proteins (500ng, 1μg, 5μg, 10μg) injected at flow rate 10 ml/min for 240 s; flagellin as positive control; BIA EVALUATION 3.0. Particulars: both partners purified.

In the test with NAIP (human) [1], “Flagellin (from UniProt P06179 1-495) (natural protein)” had a Kd of 0.0247 nM, a koff of 9.81e-07 s⁻¹ and a kon of 39700 M⁻¹ s⁻¹.
The molecule “HIV-1 glycoprotein 41 (gp41) (natural protein)” came in with an FRET efficiency E with NAIP (human) [2] of 24%.
Regarding “gp41 CT (from UniProt P04578 707-856) (domain or fragment)”, in the test with NAIP (human) [1], the Kd amounted to 0.413 nM, the koff was 9.87e-06 s⁻¹ and the kon is 23900 M⁻¹ s⁻¹.

B1: gp41TM/CT (domain or fragment)
chain: FIMIVGGLVGLRIVFAVLSIVNRVRQGYSPLSFQTHLPTPRGPDRPEGIEEEGGERDRDRSIRLVNGSLALIWDDLRSLCLFSYHRLRDLLLIVTRIVELLGRRGWEALKYWWNLLQYWSQELKNSAVSLLNATAIAVAEGTDRVIEVVQGACRAIRHIPRRIRQGLERILL
For the molecule B1, in the test with NAIP, the affinity, expressed as Kd, was 1.59 nM; the koff turned out to be 6.91e-05 s⁻¹; the kon is 43500 M⁻¹ s⁻¹.
